The text below walks through data of paper PMC7275037, “DNA origami-based single-molecule force spectroscopy elucidates RNA Polymerase III pre-initiation complex stability”.

In data set [1] the target is TBP;TFIIA (single chain) (Homo sapiens;Homo sapiens) (UniProt P20226+P52655+P52657). As to the kind of experiment: smFRET. Particulars: Binding buffer and temperature not in the material (origami folding buffer: 10 mM Tris pH 7.6, 1 mM EDTA, 20 mM MgCl2, 5 mM NaCl); TFIIB 0.2 uM, TFIIA 2 uM ….
The target of data set [2] is TBP;TFIIA (single chain);TFIIB (Homo sapiens;Homo sapiens;Homo sapiens?) (UniProt P20226+P52655+P52657+Q00403). As to the kind of experiment: smFRET. Particulars: Binding buffer and temperature not in the material (origami folding buffer: 10 mM Tris pH 7.6, 1 mM EDTA, 20 mM MgCl2, 5 mM NaCl); TFIIB 0.2 uM, TFIIA 2 uM ….
Sequence of TBP;TFIIA (single chain);TFIIB (Homo sapiens;Homo sapiens;Homo sapiens?) (P20226 whole entry, chain 1 of 4): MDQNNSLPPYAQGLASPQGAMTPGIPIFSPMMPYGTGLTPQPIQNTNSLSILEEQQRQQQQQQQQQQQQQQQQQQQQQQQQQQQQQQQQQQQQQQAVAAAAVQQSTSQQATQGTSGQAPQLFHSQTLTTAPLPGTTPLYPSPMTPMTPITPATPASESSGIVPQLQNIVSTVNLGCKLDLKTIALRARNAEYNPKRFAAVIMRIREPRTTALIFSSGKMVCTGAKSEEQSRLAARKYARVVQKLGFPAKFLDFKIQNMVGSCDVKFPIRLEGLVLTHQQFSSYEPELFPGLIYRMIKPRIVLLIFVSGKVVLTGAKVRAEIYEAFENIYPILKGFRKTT
Sequence of TBP;TFIIA (single chain);TFIIB (Homo sapiens;Homo sapiens;Homo sapiens?) (P52655 whole entry, chain 2 of 4): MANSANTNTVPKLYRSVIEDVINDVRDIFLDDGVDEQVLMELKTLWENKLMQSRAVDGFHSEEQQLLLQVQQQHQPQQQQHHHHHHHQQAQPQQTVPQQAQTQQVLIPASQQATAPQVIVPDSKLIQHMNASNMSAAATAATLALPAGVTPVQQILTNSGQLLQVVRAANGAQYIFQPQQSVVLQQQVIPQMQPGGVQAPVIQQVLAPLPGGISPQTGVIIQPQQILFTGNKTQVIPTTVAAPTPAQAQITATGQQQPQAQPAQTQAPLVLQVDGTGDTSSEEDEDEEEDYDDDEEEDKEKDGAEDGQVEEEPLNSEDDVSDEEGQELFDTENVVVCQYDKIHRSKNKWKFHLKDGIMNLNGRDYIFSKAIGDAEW
Sequence of TBP;TFIIA (single chain);TFIIB (Homo sapiens;Homo sapiens;Homo sapiens?) (P52657 whole entry, chain 3 of 4): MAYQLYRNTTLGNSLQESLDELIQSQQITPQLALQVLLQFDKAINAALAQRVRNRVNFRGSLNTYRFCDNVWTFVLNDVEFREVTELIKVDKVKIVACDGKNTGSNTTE
Sequence of TBP;TFIIA (single chain);TFIIB (Homo sapiens;Homo sapiens;Homo sapiens?) (Q00403 whole entry, chain 4 of 4): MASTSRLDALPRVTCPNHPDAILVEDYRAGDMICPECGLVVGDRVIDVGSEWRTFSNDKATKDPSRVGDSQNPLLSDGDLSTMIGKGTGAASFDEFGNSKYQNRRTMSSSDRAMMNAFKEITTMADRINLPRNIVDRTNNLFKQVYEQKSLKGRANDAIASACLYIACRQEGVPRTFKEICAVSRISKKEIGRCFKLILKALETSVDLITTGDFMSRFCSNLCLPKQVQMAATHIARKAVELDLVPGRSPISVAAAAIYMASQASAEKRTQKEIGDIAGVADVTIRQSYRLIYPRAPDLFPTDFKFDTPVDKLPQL
Another data set deals with TBP (Homo sapiens, UniProt P20226 169-339). The data set is described as follows: smFRET; TIRF dwell times; 0 pN; 20 nM TBP; E=0.39; Binding buffer and temperature not in the material (origami folding buffer: 10 mM Tris pH 7.6, 1 mM EDTA, 20 mM MgCl2, 5 mM NaCl); TFIIB 0.2 uM, TFIIA 2 uM, other proteins 20 nM. Particulars: protein: recombinant; tags: N-terminal His; label: ATTO 532 and ATTO 647N on S17 strand (positions by colour only); ds region (U6_comp) within ssDNA spring.
Sequence of TBP (P20226 169-339): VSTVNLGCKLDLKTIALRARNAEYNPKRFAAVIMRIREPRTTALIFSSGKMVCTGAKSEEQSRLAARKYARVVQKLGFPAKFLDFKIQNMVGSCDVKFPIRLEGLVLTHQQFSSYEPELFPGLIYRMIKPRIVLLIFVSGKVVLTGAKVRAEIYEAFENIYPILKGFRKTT

“And” between values parts separate entries of the source, which are not always exact repeats. Identical values can stand only once.

Sequence of TBP;TFIIA (single chain) (Homo sapiens;Homo sapiens) (P20226 whole entry, chain 1 of 3): as the sequence (P20226 whole entry, chain 1 of 4) above
Sequence of TBP;TFIIA (single chain) (Homo sapiens;Homo sapiens) (P52655 whole entry, chain 2 of 3): as the sequence (P52655 whole entry, chain 2 of 4) above
Sequence of TBP;TFIIA (single chain) (Homo sapiens;Homo sapiens) (P52657 whole entry, chain 3 of 3): as the sequence (P52657 whole entry, chain 3 of 4) above

Consider “AAGCTTTAGGGCGCCTATAAAAGGGGGTTCGGGCG (double strand) [AdMLP promoter in DNA origami force clamp]”, for which the binding signal (% high FRET (bent)) in data set [1] was 26; in data set [2] it was 72 and 53.

B1: U6 snRNA promoter in DNA origami force clamp (dsDNA)
DNA 1: CGGACCAAGATGATTTGATTGAAGGGCTTAAAATAGGTGTTAGAGTAACCCTTGA
DNA 2: TCAAGGGTTACTCTAACACCTATTTTAAGCCCTTCAATCAAATCATCTTGGTCCG
For the molecule B1, in the data set with TBP, the binding result is recorded as “binds”.
